From patent publication US5616484

Target: T1, ApaLI restriction endonuclease (apaLIR product, 375 aa) (Acetobacter pasteurianus) (UniProt O52703)
T1 sequence: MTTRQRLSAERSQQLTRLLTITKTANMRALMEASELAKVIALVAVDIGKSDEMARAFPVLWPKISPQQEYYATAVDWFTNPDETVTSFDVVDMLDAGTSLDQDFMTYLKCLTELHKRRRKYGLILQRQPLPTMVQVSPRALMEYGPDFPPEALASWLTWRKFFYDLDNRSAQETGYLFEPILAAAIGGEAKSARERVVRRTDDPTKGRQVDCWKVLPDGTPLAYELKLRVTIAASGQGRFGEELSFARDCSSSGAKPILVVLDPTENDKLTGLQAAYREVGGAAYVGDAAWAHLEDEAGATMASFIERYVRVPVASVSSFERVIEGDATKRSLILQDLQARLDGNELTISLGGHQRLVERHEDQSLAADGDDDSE
Test: cleavage_in_vitro
Conditions: diluted cell extract, 1 ug lambda DNA, 1 h, 37 C

Work on lambda DNA yielded an activity (units/g wet cells) of 1e+06.
